Test [1] addresses T1, phosphorylated human tau protein (human, UniProt P10636-8 1-441, limits assumed, S422 phosphorylation).
T1 construct: also called pTau
The test is described as follows: SPR BIAcore.
T1 sequence (P10636 other isoform, or with tags, fused parts or gaps limits assumed): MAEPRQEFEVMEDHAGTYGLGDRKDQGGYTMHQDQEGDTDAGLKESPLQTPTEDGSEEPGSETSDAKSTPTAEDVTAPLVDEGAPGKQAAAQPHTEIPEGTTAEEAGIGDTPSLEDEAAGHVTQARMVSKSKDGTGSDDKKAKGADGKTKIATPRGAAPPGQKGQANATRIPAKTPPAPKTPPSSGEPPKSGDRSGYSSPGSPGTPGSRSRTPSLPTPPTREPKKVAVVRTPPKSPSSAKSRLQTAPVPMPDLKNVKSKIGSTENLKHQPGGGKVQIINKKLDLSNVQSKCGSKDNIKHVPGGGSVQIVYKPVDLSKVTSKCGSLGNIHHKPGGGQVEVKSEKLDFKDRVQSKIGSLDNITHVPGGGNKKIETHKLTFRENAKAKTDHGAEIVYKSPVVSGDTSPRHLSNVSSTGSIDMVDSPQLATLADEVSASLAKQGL

Test [2] has as its target T2, phosphorylated human tau protein (human, UniProt P10636-8 1-441, limits assumed, S422 phosphorylation).
T2 construct: also called pTau
Description: SPR (BIAcore), captured antibody.
T2 sequence (P10636 other isoform, or with tags, fused parts or gaps limits assumed): as above

B1: Rb86 HC Rb86 / LC 014--IMGT_hVK_1_17 (antibody, V domains shown)
VH: QSVEESGGRLVTPGTPLTLTCTVSGFSLSSNAINWVRQAPGKGLEWIGYIAVSGNTYYASWAKGRFTISKASTTVDLKMTSPTAEDTGTYFCGKSNIWGPGTLVTVSL
VL: DIQMTQSPSSLSASVGDRVTITCRASQGVRTNKLAWFQQKPGQPPKRLIYSASTLQSGVPSRFSGSGSGTEFTLTISSLQSEDFATYYCLGYFDCSIADCVAFGGGTKVEIK
B1 displayed a BL in test [1] of 150 RU.

B2: Rb86 HC 001_IGHV3_23_04 / LC Rb86 (antibody, V domains shown)
VH: QQLVESGGGLVQPGGSLRLSCAASGFSLSSNAINWVRQAPGKGLEWVGYIAVSGNTYYASWAKGRFTISRDNSKNTLYLQMNSLRAEDTAVYYCGKSNIWGQGTLVTVSS
VL: AQVLTQTTSPVSAAVGSTVTISCQSSQSVRTNKLAWFQQKPGQPPKRLIYSASTLDFGVPSRFSASGSGTQFTLTISDVQCDDAATYYCLGYFDCSIADCVAFGGGTEVVVK
B2 displayed a BL in test [1] of 197 RU.

B3: Rb86 HC 001_IGHV3_23_04 / LC 015--IMGT_hVK_1_17 (antibody, V domains shown)
VH: QQLVESGGGLVQPGGSLRLSCAASGFSLSSNAINWVRQAPGKGLEWVGYIAVSGNTYYASWAKGRFTISRDNSKNTLYLQMNSLRAEDTAVYYCGKSNIWGQGTLVTVSS
VL: DIQMTQSPSSLSASVGDRVTITCRASQGVRTNKLAWFQQKPGQPPKRLIYSASTLQSGVPSRFSGSGSGTEFTLTISSLQPEDFATYYCLGYFDSSIADSVAFGGGTKVEIK
In the case of B3, the BL in test [1] turned out to be 63.6 RU.

B4: Rb86 HC 001_IGHV3_23_04 / LC 002--IMGT_hVK_4_1 (antibody, V domains shown)
VH: QQLVESGGGLVQPGGSLRLSCAASGFSLSSNAINWVRQAPGKGLEWVGYIAVSGNTYYASWAKGRFTISRDNSKNTLYLQMNSLRAEDTAVYYCGKSNIWGQGTLVTVSS
VL: AQVMTQSPDSLAVSLGERATINCKSSQSVRTNKLAWFQQKPGQPPKRLIYSASTLDSGVPDRFSGSGSGTDFTLTISSLQAEDVAVYYCLGYFDCSIADCVAFGGGTKVEIK
On to B4, for which the BL in test [1] was 108 RU.

B5: Rb86 HC 002--IMGT_hVH_3_23 / LC Rb86 (antibody, V domains shown)
VH: QSVLESGGGLVQPGGSLRLSCAASGFSLSSNAINWVRQAPGKGLEWVGYIAVSGNTYYASWAKGRFTISRDNSKNTLYLQMNSLRAEDTAVYYCGKSNIWGPGTLVTVSS
VL: AQVLTQTTSPVSAAVGSTVTISCQSSQSVRTNKLAWFQQKPGQPPKRLIYSASTLDFGVPSRFSASGSGTQFTLTISDVQCDDAATYYCLGYFDCSIADCVAFGGGTEVVVK
The molecule B5 registered a BL in test [1] of 225 RU.

B6: Rb86 variant: HC 001_IGHV3_23_04 / LC 002--IMGT_hVK_4_1 (antibody, V domains shown)
VH: QQLVESGGGLVQPGGSLRLSCAASGFSLSSNAINWVRQAPGKGLEWVGYIAVSGNTYYASWAKGRFTISRDNSKNTLYLQMNSLRAEDTAVYYCGKSNIWGQGTLVTVSS
VL: AQVMTQSPDSLAVSLGERATINCKSSQSVRTNKLAWFQQKPGQPPKRLIYSASTLDSGVPDRFSGSGSGTDFTLTISSLQAEDVAVYYCLGYFDCSIADCVAFGGGTKVEIK
As for B6, the “half-life (t1/2)” value in test [2] stood at 5.36 min.

B7: Rb86 variant: HC 001_IGHV3_23_04 / LC 001--IMGT_hVK_1_5 (antibody, V domains shown)
VH: QQLVESGGGLVQPGGSLRLSCAASGFSLSSNAINWVRQAPGKGLEWVGYIAVSGNTYYASWAKGRFTISRDNSKNTLYLQMNSLRAEDTAVYYCGKSNIWGQGTLVTVSS
VL: DIQMTQSTSTLSASVGDRVTITCQSSQSVRTNKLAWFQQKPGKAPKRLIYSASTLDFGVPSRFSGSGSGTEFTLTISSLQPDDFATYYCLGYFDCSIADCVAFGGGTKVEIK
Regarding B7, in test [2], the “half-life (t1/2)” value is 3.41 min.

B8: Rb86 HC 001_IGHV3_23_04 / LC 004--IMGT_hVK_4_1 (antibody, V domains shown)
VH: QQLVESGGGLVQPGGSLRLSCAASGFSLSSNAINWVRQAPGKGLEWVGYIAVSGNTYYASWAKGRFTISRDNSKNTLYLQMNSLRAEDTAVYYCGKSNIWGQGTLVTVSS
VL: DIVMTQSPDSLAVSLGERATINCKSSQSVRTNKLAWFQQKPGQPPKRLIYSASTLDSGVPDRFSGSGSGTDFTLTISSLQAEDVAVYYCLGYFDCSIADCVAFGGGTKVEIK
In test [1], B8 gave a BL of 59.2 RU.

B9: Rb86 HC 001_IGHV3_23_04 / LC 010--IMGT_hVK_1_17 (antibody, V domains shown)
VH: QQLVESGGGLVQPGGSLRLSCAASGFSLSSNAINWVRQAPGKGLEWVGYIAVSGNTYYASWAKGRFTISRDNSKNTLYLQMNSLRAEDTAVYYCGKSNIWGQGTLVTVSS
VL: DIQMTQSPSSLSASVGDRVTITCRASQGVRTNKLGWYQQKPGKAPKRLIYSASTLQSGVPSRFSGSGSGTEFTLTISSLQPEDFATYYCLGYFDCSIADCVAFGGGTKVEIK
In turn, B9 returned a BL in test [1] of -4.7 RU.

B10: Rb86 HC 001_IGHV3_23_04 / LC 012--IMGT_hVK_1_17 (antibody, V domains shown)
VH: QQLVESGGGLVQPGGSLRLSCAASGFSLSSNAINWVRQAPGKGLEWVGYIAVSGNTYYASWAKGRFTISRDNSKNTLYLQMNSLRAEDTAVYYCGKSNIWGQGTLVTVSS
VL: DIQMTQSPSSLSASVGDRVTITCRASQGVRTNKLAWFQQKPGQPPKRLIYSASTLQSGVPSRFSGSGSGTEFTLTISSLQPEDFATYYCLGYFDCSIADCVAFGGGTKVEIK
Regarding B10, the BL in test [1] came to 92.2 RU.

B11: Rb86 HC 001_IGHV3_23_04 / LC 003--IMGT_hVK_4_1 (antibody, V domains shown)
VH: QQLVESGGGLVQPGGSLRLSCAASGFSLSSNAINWVRQAPGKGLEWVGYIAVSGNTYYASWAKGRFTISRDNSKNTLYLQMNSLRAEDTAVYYCGKSNIWGQGTLVTVSS
VL: AQVMTQSPDSLAVSLGERATINCKSSQSVRTNKLAWFQQKPGQPPKRLIYSASTLDSGVPDRFSGSGSGTDFTLTISSLQAEDVAVYYCLGYFDCSIADCVAFGGGTEVVVK
As to B11, in test [1], the BL came to 102 RU.

B12: Rb86 HC 001_IGHV3_23_04 / LC 005--IMGT_hVK_4_1 (antibody, V domains shown)
VH: QQLVESGGGLVQPGGSLRLSCAASGFSLSSNAINWVRQAPGKGLEWVGYIAVSGNTYYASWAKGRFTISRDNSKNTLYLQMNSLRAEDTAVYYCGKSNIWGQGTLVTVSS
VL: DIVMTQSPDSLAVSLGERATINCKSSQSVRTNKLAWFQQKPGQPPKRLIYSASTLDSGVPDRFSGSGSGTDFTLTISSLQAEDVAVYYCLGYFDSSIADSVAFGGGTKVEIK
In turn, B12 registered a BL in test [1] of 62.9 RU.

B13: Rb86 variant: HC 001_IGHV3_23_04 / LC 005--IMGT_hVK_4_1 (antibody, V domains shown)
VH: QQLVESGGGLVQPGGSLRLSCAASGFSLSSNAINWVRQAPGKGLEWVGYIAVSGNTYYASWAKGRFTISRDNSKNTLYLQMNSLRAEDTAVYYCGKSNIWGQGTLVTVSS
VL: DIVMTQSPDSLAVSLGERATINCKSSQSVRTNKLAWFQQKPGQPPKRLIYSASTLDSGVPDRFSGSGSGTDFTLTISSLQAEDVAVYYCLGYFDSSIADSVAFGGGTKVEIK
Consider B13, for which, in test [2], the “half-life (t1/2)” value was determined as 1.71 min.

B14: Rb86 HC 001_IGHV3_23_04 / LC 013--IMGT_hVK_1_17 (antibody, V domains shown)
VH: QQLVESGGGLVQPGGSLRLSCAASGFSLSSNAINWVRQAPGKGLEWVGYIAVSGNTYYASWAKGRFTISRDNSKNTLYLQMNSLRAEDTAVYYCGKSNIWGQGTLVTVSS
VL: DIQMTQSTSSLSASVGDRVTITCRASQGVRTNKLAWFQQKPGQPPKRLIYSASTLQSGVPSRFSGSGSGTEFTLTISSLQPEDFATYYCLGYFDCSIADCVAFGGGTKVEIK
B14 came in with a BL in test [1] of 90.9 RU.

B15: Rb86 HC 001_IGHV3_23_04 / LC 001--IMGT_hVK_1_5 (antibody, V domains shown)
VH: QQLVESGGGLVQPGGSLRLSCAASGFSLSSNAINWVRQAPGKGLEWVGYIAVSGNTYYASWAKGRFTISRDNSKNTLYLQMNSLRAEDTAVYYCGKSNIWGQGTLVTVSS
VL: DIQMTQSTSTLSASVGDRVTITCQSSQSVRTNKLAWFQQKPGKAPKRLIYSASTLDFGVPSRFSGSGSGTEFTLTISSLQPDDFATYYCLGYFDCSIADCVAFGGGTKVEIK
In test [1], B15 displayed a BL of 101 RU.

B16: Rb86 variant: HC 001_IGHV3_23_04 / LC 004--IMGT_hVK_4_1 (antibody, V domains shown)
VH: QQLVESGGGLVQPGGSLRLSCAASGFSLSSNAINWVRQAPGKGLEWVGYIAVSGNTYYASWAKGRFTISRDNSKNTLYLQMNSLRAEDTAVYYCGKSNIWGQGTLVTVSS
VL: DIVMTQSPDSLAVSLGERATINCKSSQSVRTNKLAWFQQKPGQPPKRLIYSASTLDSGVPDRFSGSGSGTDFTLTISSLQAEDVAVYYCLGYFDCSIADCVAFGGGTKVEIK
As to B16, the “half-life (t1/2)” value in test [2] is 3.44 min.

B17: Rb86 HC 001_IGHV3_23_04 / LC 006--IMGT_hVK_7_3 (antibody, V domains shown)
VH: QQLVESGGGLVQPGGSLRLSCAASGFSLSSNAINWVRQAPGKGLEWVGYIAVSGNTYYASWAKGRFTISRDNSKNTLYLQMNSLRAEDTAVYYCGKSNIWGQGTLVTVSS
VL: DIVLTQSPASLAVSPGQRATITCQSSQSVRTNKLAWFQQKPGQPPKRLIYSASTLDFGVPARFSGSGSGTDFTLTINPVEANDTANYYCLGYFDCSIADCVAFGGGTKVEIK
The molecule B17 returned a BL in test [1] of 97.9 RU.

B18: Rb86 HC 001_IGHV3_23_04 / LC 017--IMGT_hVK_1_17 (antibody, V domains shown)
VH: QQLVESGGGLVQPGGSLRLSCAASGFSLSSNAINWVRQAPGKGLEWVGYIAVSGNTYYASWAKGRFTISRDNSKNTLYLQMNSLRAEDTAVYYCGKSNIWGQGTLVTVSS
VL: DIQMTQSPSSLSASVGDRVTITCRSSQSVRTNKLAWFQQKPGQPPKRLIYSASTLDFGVPSRFSGSGSGTEFTLTISSLQPEDFATYYCLGYFDCSIADCVAFGGGTKVEIK
B18: the BL in test [1] was 91.1 RU.

B19: Rb86 variant: HC 001_IGHV3_23_04 / LC Rb86 (antibody, V domains shown)
VH: QQLVESGGGLVQPGGSLRLSCAASGFSLSSNAINWVRQAPGKGLEWVGYIAVSGNTYYASWAKGRFTISRDNSKNTLYLQMNSLRAEDTAVYYCGKSNIWGQGTLVTVSS
VL: AQVLTQTTSPVSAAVGSTVTISCQSSQSVRTNKLAWFQQKPGQPPKRLIYSASTLDFGVPSRFSASGSGTQFTLTISDVQCDDAATYYCLGYFDCSIADCVAFGGGTEVVVK
As to B19, the “half-life (t1/2)” value in test [2] came to 12.7 min.

B20: Rb86 HC 001_IGHV3_23_04 / LC 014--IMGT_hVK_1_17 (antibody, V domains shown)
VH: QQLVESGGGLVQPGGSLRLSCAASGFSLSSNAINWVRQAPGKGLEWVGYIAVSGNTYYASWAKGRFTISRDNSKNTLYLQMNSLRAEDTAVYYCGKSNIWGQGTLVTVSS
VL: DIQMTQSPSSLSASVGDRVTITCRASQGVRTNKLAWFQQKPGQPPKRLIYSASTLQSGVPSRFSGSGSGTEFTLTISSLQSEDFATYYCLGYFDCSIADCVAFGGGTKVEIK
Turning to B20, in test [1], the BL amounted to 96.2 RU.

B21: Rb86 variant: HC 001_IGHV3_23_04 / LC 003--IMGT_hVK_4_1 (antibody, V domains shown)
VH: QQLVESGGGLVQPGGSLRLSCAASGFSLSSNAINWVRQAPGKGLEWVGYIAVSGNTYYASWAKGRFTISRDNSKNTLYLQMNSLRAEDTAVYYCGKSNIWGQGTLVTVSS
VL: AQVMTQSPDSLAVSLGERATINCKSSQSVRTNKLAWFQQKPGQPPKRLIYSASTLDSGVPDRFSGSGSGTDFTLTISSLQAEDVAVYYCLGYFDCSIADCVAFGGGTEVVVK
As to B21, the “half-life (t1/2)” value in test [2] was determined as 4.76 min.

Source of the values: patent publication US20170204182A1 (published 2017).
